The results in this text go back to the RNAGym collection of RNA variant scans (doi:10.1021/acssynbio.7b00057).

The chains are these.
B1: Pistol ribozyme (parent)
chain: GGGUCGUUGUUCCAUAAUCGCGUGGAUAUGGCACGCAAGUUUCUACCGGGCACCGUAAAUGUCCGACUGGAGCCGUUCGGGCGGCUAUAAACAGACCUCAGGCCCGAAGCGUGGCGGCACCUGCCGCCGGUGGUAAAAAAGAUCGGAAGAGCACACGUCU

The variants in this series derive from B1. As to the kind of experiment: aptazyme ON/OFF ratio, guanine; higher = stronger switching; co-transcriptional cleavage with and without guanine.
Consider U7C U8A C12A, for which the “aptazyme ON/OFF ratio” value amounted to 1.3.
Turning to U7A G9C U10C U11C C12G C13U, the “aptazyme ON/OFF ratio” value is 1.02.
U7G U8C G9A C12U C13U: the “aptazyme ON/OFF ratio” value was 1.03.
The value for U7A U8G G9A U10C U11G C13U was 1.25.
Turning to U7C G9A U11C C12G C13U, the “aptazyme ON/OFF ratio” value stood at 1.18.
Consider U7A U8C G9U U10A C12U C13A, for which the “aptazyme ON/OFF ratio” value amounted to 1.29.
The same measure for U7G G9C U10C U11C C12A: 1.03.
Consider U7G U8G U11C C12G C13G, for which the “aptazyme ON/OFF ratio” value came to 1.23.
Regarding U7A G9A U11C C12G C13U, the “aptazyme ON/OFF ratio” value was determined as 1.15.
As to U7G U8G G9U C13A, the “aptazyme ON/OFF ratio” value was found to be 1.44.
As to U7A G9U U10C U11G C12U C13A, the “aptazyme ON/OFF ratio” value came to 1.15.
As to U7A G9C U10G U11G C12A C13G, the “aptazyme ON/OFF ratio” value came out at 1.06.
As for U8A G9C U10C U11C C12G C13G, the “aptazyme ON/OFF ratio” value came out at 1.05.
The value for U7A U8G G9U U10A C12A C13A was 1.31.
As for U7A U8A G9U U10G U11C C12A C13A, the “aptazyme ON/OFF ratio” value was 1.29.
The value for U7A U8A G9A U11G C12U C13G was 1.18; that for U7C G9C U10C U11A was 0.975; that for G9A U10C U11G C12U C13U was 1.4.
As for U7A U8G G9C U10A U11A C12G C13U, the “aptazyme ON/OFF ratio” value came out at 1.38.
On to U8C G9A U11C C12U C13U, for which the “aptazyme ON/OFF ratio” value was found to be 1.22.
As for U8A G9A, the “aptazyme ON/OFF ratio” value was found to be 1.91.
For U7C U8A G9U U10G U11A, the “aptazyme ON/OFF ratio” value came out at 1.05.
Take U7C U8G G9A U10G U11G C12A C13A: the “aptazyme ON/OFF ratio” value was found to be 1.11.
Take U7A U8A U10A U11C C13A: the “aptazyme ON/OFF ratio” value came out at 1.04.
On to U8A G9A U10C C12A C13U, for which the “aptazyme ON/OFF ratio” value was 1.18.
The value for U7A U8G G9C U10G U11A C12U was 1.2; that for U7G U8C U10G was 1.31.
For the variant U7C U8C G9A U11C C12G, the “aptazyme ON/OFF ratio” value is 1.17.
For U7A U8A G9A U10A U11C C12U C13U, the “aptazyme ON/OFF ratio” value stood at 1.14.
For the variant U7A U8C G9U U10A U11A C12G, the “aptazyme ON/OFF ratio” value amounted to 1.27.
Consider U7A G9C U10A U11G C12A, for which the “aptazyme ON/OFF ratio” value worked out at 1.04.
In the case of U7A U8A G9C U10A U11C C12U, the “aptazyme ON/OFF ratio” value was 1.05.
As to U8G G9U U11C C12U C13U, the “aptazyme ON/OFF ratio” value was 1.03.
Consider U8C G9C U10G C12A C13G, for which the “aptazyme ON/OFF ratio” value was determined as 1.08.
As to G9U U10C U11G C13U, the “aptazyme ON/OFF ratio” value turned out to be 1.52.
U7G U8G G9C U10A U11C C12A: the “aptazyme ON/OFF ratio” value amounted to 1.06.
As for U7G G9U U10C U11C C13G, the “aptazyme ON/OFF ratio” value came to 1.07.
Turning to U7A U8C G9U C12G C13A, the “aptazyme ON/OFF ratio” value is 1.23.
Regarding U7C U8G G9C U10A U11A C13A, the “aptazyme ON/OFF ratio” value is 1.15.
Consider U7A U8A G9C U10C U11G C12A C13G, for which the “aptazyme ON/OFF ratio” value turned out to be 1.03.
Regarding U8A U10G U11A C12G C13U, the “aptazyme ON/OFF ratio” value amounted to 1.15.
Turning to U7G U8C G9A U10G U11G C12G C13U, the “aptazyme ON/OFF ratio” value turned out to be 1.14.
The value for U7A U8A G9U U10C U11C C12U C13G was 1.02.
In the case of U8A G9U U11G C12A C13G, the “aptazyme ON/OFF ratio” value was determined as 1.41.
In the case of U7A U8A G9A U10G U11C C12G C13G, the “aptazyme ON/OFF ratio” value was 1.17.
Take U7C U8G G9U U10A C13U: the “aptazyme ON/OFF ratio” value came to 1.1.
Consider U7A U8A U10A U11A C12U C13A, for which the “aptazyme ON/OFF ratio” value is 1.33.
For the variant U7G U8G G9C U11A C12G, the “aptazyme ON/OFF ratio” value is 1.17.
As for U8G G9A U10C U11A C12A C13U, the “aptazyme ON/OFF ratio” value is 1.16.
Consider U7A U8C U10C U11C C12A, for which the “aptazyme ON/OFF ratio” value is 1.14.
In the case of G9C U10C C13A, the “aptazyme ON/OFF ratio” value amounted to 1.06.
With U7C U8G G9U U10C C12G, the “aptazyme ON/OFF ratio” value stood at 1.29.
On to U7A U8C G9A U10G U11G C13U, for which the “aptazyme ON/OFF ratio” value is 1.18.
On to U7G U8A G9C U10G U11G C12G C13G, for which the “aptazyme ON/OFF ratio” value is 1.05.
In the case of U8A G9C U10A U11C C12U C13U, the “aptazyme ON/OFF ratio” value was 1.09.
Regarding U7G U10C U11G C12A C13U, the “aptazyme ON/OFF ratio” value worked out at 1.11.
Turning to U7G U8G U11C C13G, the “aptazyme ON/OFF ratio” value stood at 1.27.
The same measure for U7G U8A G9A U10C U11A C12G C13A: 1.11; for U7C U8G G9C C13G: 1.04; for U8G U10G U11A C12U C13U: 1.26.
In the case of G9A U10C U11A C13A, the “aptazyme ON/OFF ratio” value is 1.41.
Take U7A G9U U11G C12U: the “aptazyme ON/OFF ratio” value came out at 1.52.
U7G U8C U10A U11C C12A: the “aptazyme ON/OFF ratio” value worked out at 1.24.
As for U7C G9C U10C U11A C12U, the “aptazyme ON/OFF ratio” value was 1.
For U7A U8C G9U U10A U11C C13A, the “aptazyme ON/OFF ratio” value is 1.08.
The same measure for U7C U8C G9C U10C U11A C12G C13U: 1.05; for U8G G9C U10C U11C C12A C13A: 1.02; for U7G U8C U10C U11C C12G: 1.27.
As for U7C U8G G9A U10C U11G C12U, the “aptazyme ON/OFF ratio” value turned out to be 1.29.
In the case of U7C U8C G9U U11C C12A C13A, the “aptazyme ON/OFF ratio” value was determined as 1.06.
Take U7G U8G G9U U10C C12U C13G: the “aptazyme ON/OFF ratio” value came out at 1.36.
Consider U7A U8A G9C U10G U11A C12U, for which the “aptazyme ON/OFF ratio” value is 1.03.
Take G9U U10A C12U C13G: the “aptazyme ON/OFF ratio” value came out at 1.1.
Regarding U7C U8C G9C U10C U11A C12A C13G, the “aptazyme ON/OFF ratio” value came to 1.06.
With U8C G9A U10G U11C C13G, the “aptazyme ON/OFF ratio” value was 1.07.
Take U7C U8C G9C U10G U11G C12A C13A: the “aptazyme ON/OFF ratio” value worked out at 1.08.
The value for U7C U8A G9U U10C U11G C13G was 1.04; that for U7A U8A G9U U10A U11A C13G was 1.07; that for U7C U8G G9C U10G U11A C12A C13G was 1.21.
The value for U7G G9C U10A U11A C13A was 1.31; that for U7A U10C U11A C12A C13A was 1.21; that for U7C G9U U10A U11C C12G C13U was 1.15.
For U7G U8G G9C U10A U11A C12U C13G, the “aptazyme ON/OFF ratio” value is 1.03.
Consider U10G U11A C12U C13G, for which the “aptazyme ON/OFF ratio” value amounted to 1.2.
